Article PMC6692331

Tests used:
[1] = biological target: carboxymethylated humanized ferritin (S-CMHumFt) (Archaeoglobus fulgidus | human); experiment: SEC; HP-SEC with UV (220, 410 nm) and fluorimetric detection; ferritin dissociated without MgCl2, mixed with a 20 fold molar excess of Cyt C, re-assembled with 50 mM MgCl2; mobile phase 20 mM HEPES pH 7.4, 50 mM MgCl2; Cyt C signal at the retention time of the ferritin 24-mer (encapsulation in the cavity)
[2] = biological target: humanized Archaeoglobus ferritin (HumFt) (Archaeoglobus fulgidus | human); experiment: as above

## cytochrome C from equine heart (from UniProt P00004 1-105) (natural protein)
[1]
  stoichiometry N: 1.4 Cyt C:HumFt
[2]
  stoichiometry N: 0.43 Cyt C:HumFt
